Reference: the supplement of paper PMC10567573
± gives the standard deviation.

Test: protein stability index of a GFP-peptide fusion (GPS, HEK-293T) (PSI 1-6); higher = more stable
[1] = treatment: DMSO, c terminus: a fixed tail appended
[2] = treatment: MLN4924 1 uM, 8 h, c terminus: a fixed tail appended
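Note: 24-mer peptide tiles fused after GFP, lentivirally expressed, FACS-sorted into six equal bins by GFP/DsRed ratio, decoded by Illumina sequencing, PSI is the read-weighted mean bin number.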

Sequence	protein stability index [1]	protein stability index [2]	protein stability index (treatment: DMSO, c terminus: native)	protein stability index (treatment: MLN4924 1 uM, 8 h, c terminus: native)
VNPAYPESRYTSDYFISYGIEHAQ [ETS1]	2.8 ± 0.51	2.8 ± 0.4		
VNVEMDAAPGVDLTRVLAEMREQY [KRT15]	3.13 ± 0.42	3.27 ± 0.31		
VNVPGSFVCQCYSGYALAEDGKRC [MATN2]	2.75 ± 0.42	3.05 ± 0.46		
VPFDIFTEEVKFYQLGEEALLKFR [KCNA4]	2.32 ± 0.36	2.54 ± 0.19		
VPIDIFSEEIRFYQLGEEAMEKFR [KCNA3]	3.14 ± 0.28	3.23 ± 0.18		
VPQDPDLEEEEEEEDLVLTCEDDE [ZBTB22]	5.59 ± 0.22	5.64 ± 0.25		
VQADQERERQRRLEVEREAEKKRE [LRRC59]	5.52 ± 0.093	5.64 ± 0.17		
VQAPSYGARPVSSAASVYAGAGGS [KRT18]	3.91 ± 0.081	3.82 ± 0.69		
VQDMGQEDMLLPLAWRIVNDTYRT [CCNC]	2.37 ± 0.21	2.57 ± 0.43		
VRDQISHCTVKLRQTTGLMEYCLE [TRIM9]	2.59 ± 0.31	2.65 ± 0.36		
VRVRQDSGAEGHSHSCYHDTRSGF [TRIM35]	3.51 ± 0.25	3.62 ± 0.31		
VSFEDPEFKSSFSQSFSLYVKYQV [ATE1]	2.99 ± 0.81	2.51 ± 0.61		
VSGSPVTQNHAASALPTGSPKRGT [FBF1]	5.27 ± 0.16	5.22 ± 0.25		
VSKELRMYDEKAHEWKSLAPMDAP [KLHL13]	3.73 ± 0.36	4.04 ± 0.11		
VTSQQEPQIPVDRGSETTYESSAD [TAF7L]	5.21 ± 0.25	5.52 ± 0.23		
VVLDMEEGTLGYAIGGTYLGPAFR [SPSB2]	2.37 ± 0.24	2.19 ± 0.074		
VVQTLYPFSSVTEEELNFEKGETM [NCK2]	3.66 ± 0.17	3.77 ± 0.29		
WASRREAFAQRPSSAPDLMCLSPD [CDC25B]	3.85 ± 0.21	4.07 ± 0.2		
WENRHEGVFKFLRSEAVAQLWGQK [ELF3]	2.43 ± 0.32	2.67 ± 0.35		
WFPPAIMGVVSLVFLIIYYLDPSV [ARL6IP1]	2.52 ± 0.46	3.28 ± 0.64		
WGVVSHSFPATLETQEQDVDLVQK [MMP1]	4.58 ± 0.34	4.73 ± 0.43		
WHTIAPMGTRRKHLGCAVYQDMIY [KLHL20]		1.93 ± 0.96		
WIFVNLTVRFCILGKESFYDTFHT [HACD3]	3.29 ± 0.26	3.05 ± 0.12		
WLVHRDPEGSVSGSQPNSGLALES [NFE2L1]	3.78 ± 0.31	3.97 ± 0.12		

Sequence	protein stability index [1]	protein stability index [2]	protein stability index (treatment: DMSO, c terminus: native)	protein stability index (treatment: MLN4924 1 uM, 8 h, c terminus: native)
WNDCISSGLRGGILIELAMRGRIY [GOLPH3L]	2.89 ± 0.45	2.48 ± 0.53		
WPKLCPCLRSGIGSSQALGPSPPL [MYCL]	2.46 ± 0.41	2.47 ± 0.14		
WQQQSYLDSGIHSGATTTAPSLSG [CTNNB1]	3.71 ± 0.1	3.78 ± 0.33		
WRWQLYAAQSTKSPWNFLGDELYE [CLPTM1]	2.79 ± 0.38	2.39 ± 0.3		
WTHVTLLIVVTQSHLVIHNLFEGM [CDS2]	3.22 ± 0.23	3.34 ± 0.35		
WYWHGDVNSNKVVMSGVKCSGTEL [LOXL2]	2.68 ± 0.53	2.75 ± 0.28		
YAIVRRPTVGIGGDRLQFNQLSQA [EFHC1]	2.06 ± 0.21	2.5 ± 0.19		
YARTPTLDPDTMHARLRLSADRLT [TRIM14]	2.91 ± 0.17	3.27 ± 0.33		
YDQQIWEKSIEQTQIKGLKNKPKK [PHTF1]	4.9 ± 0.093	5.17 ± 0.083		
YDRVAQLDQLLHYRKKSAEFPDFY [CHGB]	2.72 ± 0.14	2.8 ± 0.21		
YGKDIVKACSLLDVAVHMPCLGHT [ZBED1]	2.14 ± 0.3	2.29 ± 0.33		
YGPLKPLPQTPHLEEDLKEVLRSE [MYBL2]	5 ± 0.19	4.95 ± 0.24		
YHTGKTPFVCPECGQPCSQKSGLI [ZNF649]	2.53 ± 0.59	3.24 ± 0.58		
YKCSDCGKTFKQSSNLGQHQRIHT [ZNF232]	4.22 ± 0.18	4.3 ± 0.45		
YLTEGLLQFTILLSLIGVRVDVDT [NFE2L1]	2.66 ± 0.15	3.25 ± 0.35		
YMIHEPEPHILLFRRPLPKKPKK [CKS1B]			2.55 ± 0.23	2.99 ± 0.5
YQLLATHVPTVWAIDQYRVCQEVL [RHOBTB1]	2.61 ± 0.59	2.38 ± 0.47		
YSHEVSLTADSRKSHLIFPQPNYA [PCDHGA10]	2.79 ± 0.48	2.74 ± 0.29		
YSKTFQRSNVDFLETPELTSTMLV [NECAB1]	2.18 ± 0.37	2.39 ± 0.35		
YSLAEDTIQGVPLSSYISINSDTG [PCDHGA10]	3.53 ± 0.2	3.47 ± 0.28		
YTKLPSSLQSTGKCLLYCNGVLEP [SLC25A39]	2.64 ± 0.62	2.23 ± 0.35		
YTVKDKATGEVLGQFYLDLYPREG [NLN]	3.1 ± 0.69	2.8 ± 0.77		
YYSVETVTLLVALKVRYRERITIL [PPP2CA]	2.63 ± 0.69	2.56 ± 0.58		
